According to publication PMC10417383, “DNA-Binding Activity of CAMTA3 Is Essential for Its Function: Identification of Critical Amino Acids for Its Transcriptional Activity”:
Positions count from the first letter of the chain named.

Experiments:
Test in all cases: EMSA; 500 ng protein; 1X LightShift EMSA binding buffer, 50 ng/ul poly(dI-dC), 20 fmol probe in 20 ul, +/- 4 pmol unlabeled DNA, room temperature 30 min; 5% native PAGE, 0.5X TBE; pH and salt not given
Details in all cases: protein: recombinant; tags: His (pET28a); label: 3'-biotin on strand 1; blunt
CAMTA3 CG-1 M3 = target: T1, CAMTA3 CG-1 M3 (Arabidopsis thaliana, UniProt Q8GSA7 1-153, H88A)
T1 sequence: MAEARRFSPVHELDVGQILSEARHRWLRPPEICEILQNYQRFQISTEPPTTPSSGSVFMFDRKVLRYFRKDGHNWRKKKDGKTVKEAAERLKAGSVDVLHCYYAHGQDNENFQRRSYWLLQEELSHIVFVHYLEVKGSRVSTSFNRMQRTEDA

CAMTA3 CG-1 M6 = target: T2, CAMTA3 CG-1 M6 (Arabidopsis thaliana, UniProt Q8GSA7 1-153, Y132A)
T2 sequence: T1 sequence with A88H, Y132A

CAMTA3 CG-1 M4 = target: T3, CAMTA3 CG-1 M4 (Arabidopsis thaliana, UniProt Q8GSA7 1-153, Y102A;Y103A)
T3 sequence: T1 sequence with A88H, Y102A, Y103A

CAMTA3 CG-1 M1 = target: T4, CAMTA3 CG-1 M1 (Arabidopsis thaliana, UniProt Q8GSA7 1-153, W26A)
T4 sequence: T1 sequence with W26A, A88H

CAMTA3 CG-1 M2 = target: T5, CAMTA3 CG-1 M2 (Arabidopsis thaliana, UniProt Q8GSA7 1-153, W75A)
T5 sequence: T1 sequence with W75A, A88H

Measured: binding result

B1: PDF1.4 promoter probe (dsDNA)
DNA 1: CGTGAAAGTCACGCGCCAAGAACAAA
DNA 2: TTTGTTCTTGGCGCGTGACTTTCACG
no binding: all assays above
